Consider 67 sequences from the supplement of paper PMC10724198.

± gives the standard deviation of the averaged measurements.

This data set concerns Saccharomyces cerevisiae. As to the kind of experiment: protein stability index of tFT-peptide fusion (C-terminal peptide) (PSI (0-1 scale)); higher = more stable (slower turnover). Particulars: temperature: 30 C. As to the method:
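MPS profiling in S. cerevisiae of the yeast C-terminome library: the last 12 aa of each annotated ORF are fused to the C-terminus of a sfGFP-mCherry timer, after a GGGS linker. Cells are FACS-sorted into 8 mCherry/sfGFP bins and deep-sequenced. PSI runs from 0 (unstable) to 1 (stable); wild type and das1Δ backgrounds, two technical replicates each.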

Setting [1] is: genetic background: das1 deletion.

For the sequence PQENHDNKEEQS [HEK2 C-terminal 12 aa], the protein stability index was 0.676 ± 0.019 under setting [1] and 0.688 ± 0.033 (genetic background: wild type).

As for PQGAGRGRGMPM [CCT7 C-terminal 12 aa], the protein stability index is 0.69 ± 0.0089 under setting [1] and 0.678 ± 0.034 (genetic background: wild type).

On to PQMDDHTVISEI [MLO127 C-terminal 12 aa], for which the protein stability index runs as follows: under setting [1], 0.745 ± 0.029; (genetic background: wild type) 0.6854 ± 0.006.

With PRDEQDSRKRNR [IBD2 C-terminal 12 aa], the protein stability index by setting is: under setting [1], 0.699 ± 0.0085; (genetic background: wild type) 0.7315 ± 0.0047.

For the sequence PREILLRLMNDK [PRP6 C-terminal 12 aa], the protein stability index came out at 0.726 ± 0.024 under setting [1] and 0.704 ± 0.096 (genetic background: wild type).

For PRRSDLRPEFAE [VMA9 C-terminal 12 aa], the protein stability index runs as follows: under setting [1], 0.672 ± 0.022; (genetic background: wild type) 0.665 ± 0.018.

In the case of PSAYVLFYERIF [UBP5 C-terminal 12 aa], the protein stability index is, setting by setting: under setting [1], 0.71 ± 0.015; (genetic background: wild type) 0.678 ± 0.018.

In the case of PSFSNSQWRIIF [YOR169C C-terminal 12 aa], the protein stability index reads like this: under setting [1], 0.714 ± 0.021; (genetic background: wild type) 0.694 ± 0.016.

As to “PSYAVCDNILVT [YOL013W-B C-terminal 12 aa]”, the protein stability index reads like this: under setting [1], 0.67 ± 0.04; (genetic background: wild type) 0.653 ± 0.017.

Regarding PTFLIPLRLCFV [EMA19 C-terminal 12 aa], the protein stability index runs as follows: under setting [1], 0.329 ± 0.02; (genetic background: wild type) 0.336 ± 0.0072.

For PTPPTPPTPPQQ [ECM19 C-terminal 12 aa], the protein stability index was determined as 0.701 ± 0.014 under setting [1] and 0.687 ± 0.027 (genetic background: wild type).

In turn, PTTRPYIYEPRK [ELA1 C-terminal 12 aa] gave a protein stability index under setting [1] of 0.696 ± 0.011 and a protein stability index (genetic background: wild type) of 0.662 ± 0.017.

For PTWQIVEDIRNT [PMT3 C-terminal 12 aa], the protein stability index was 0.728 ± 0.025 under setting [1] and 0.718 ± 0.038 (genetic background: wild type).

Consider PVIKKSKKCAIL [CDC42 C-terminal 12 aa], for which the protein stability index is, setting by setting: under setting [1], 0.757 ± 0.0059; (genetic background: wild type) 0.6072 ± 0.0055.

In the case of “PVRHQTGMHFCI [YHR032W-A C-terminal 12 aa]”, the protein stability index was found to be 0.721 ± 0.009 under setting [1] and 0.682 ± 0.029 (genetic background: wild type).

As to PVVFHSGPVVWK [YLR415C C-terminal 12 aa], the protein stability index by setting is: under setting [1], 0.72 ± 0.034; (genetic background: wild type) 0.6969 ± 0.0058.

Consider PYLEEAYSNLEE [PPX1 C-terminal 12 aa], for which the protein stability index reads like this: under setting [1], 0.685 ± 0.0024; (genetic background: wild type) 0.722 ± 0.048.

Consider QCPVCRSPLPPL [TUL1 C-terminal 12 aa], for which the protein stability index reads like this: under setting [1], 0.714 ± 0.023; (genetic background: wild type) 0.742 ± 0.013.

Take QEAGAFTFNEDF [RNR2 C-terminal 12 aa]: the protein stability index came out at 0.726 ± 0.018 under setting [1] and 0.711 ± 0.0081 (genetic background: wild type).

Turning to “QEFVCFLFWPLT [YOR335W-A C-terminal 12 aa]”, the protein stability index runs as follows: under setting [1], 0.63 ± 0.0097; (genetic background: wild type) 0.6034 ± 0.0059.

With QELCADSTIYHM [LIP1 C-terminal 12 aa], the protein stability index was 0.687 ± 0.017 under setting [1] and 0.734 ± 0.065 (genetic background: wild type).

With QELLKLLENEKK [SLK19 C-terminal 12 aa], the protein stability index by setting is: under setting [1], 0.727 ± 0.029; (genetic background: wild type) 0.726 ± 0.047.

With “QFSFKAVTFLLI [YOR314W-A C-terminal 12 aa]”, the protein stability index under setting [1] was 0.629 ± 0.048 and the protein stability index (genetic background: wild type) stood at 0.563 ± 0.052.

QILLDKLNAVKK [HIT1 C-terminal 12 aa]: the protein stability index worked out at 0.66 ± 0.03 under setting [1] and 0.653 ± 0.019 (genetic background: wild type).

In the case of QKDSRGKKKIKK [YMR114C C-terminal 12 aa], the protein stability index runs as follows: under setting [1], 0.691 ± 0.026; (genetic background: wild type) 0.63611 ± 0.00024.

With QKKEEAKHKASE [UFD2 C-terminal 12 aa], the protein stability index by setting is: under setting [1], 0.711 ± 0.0087; (genetic background: wild type) 0.721 ± 0.067.

Consider QNNSQGFLREII [TDA7 C-terminal 12 aa], for which the protein stability index runs as follows: under setting [1], 0.6961 ± 0.004; (genetic background: wild type) 0.6925 ± 0.0034.

As to QNRFISINKIFW [YDR133C C-terminal 12 aa], the protein stability index is, setting by setting: under setting [1], 0.7034 ± 0.0032; (genetic background: wild type) 0.6671 ± 0.0016.

As for QRRTSLDYGGYF [TAF3 C-terminal 12 aa], the protein stability index reads like this: under setting [1], 0.708 ± 0.02; (genetic background: wild type) 0.725 ± 0.011.

Consider QSLVESPPPYVP [SNA4 C-terminal 12 aa], for which the protein stability index by setting is: under setting [1], 0.6915 ± 0.0048; (genetic background: wild type) 0.7 ± 0.015.

Regarding QTQLCKRKKKLT [VIK1 C-terminal 12 aa], the protein stability index worked out at 0.687 ± 0.024 under setting [1] and 0.608 ± 0.051 (genetic background: wild type).

As to QTVSTYTKVTPK [NCE103 C-terminal 12 aa], the protein stability index stood at 0.715 ± 0.016 under setting [1] and 0.702 ± 0.025 (genetic background: wild type).

On to QVLGTEEPTVRT [PGM2 C-terminal 12 aa], for which the protein stability index reads like this: under setting [1], 0.696 ± 0.046; (genetic background: wild type) 0.6625 ± 0.0017.

In the case of QVVDTIKDVHRC [YBR197C C-terminal 12 aa], the protein stability index reads like this: under setting [1], 0.7 ± 0.027; (genetic background: wild type) 0.706 ± 0.021.

Turning to RALVDAIQLRGV [CGI121 C-terminal 12 aa], the protein stability index stood at 0.68 ± 0.024 under setting [1] and 0.663 ± 0.0088 (genetic background: wild type).

For the sequence RDFFFKNVCVKM [TBS1 C-terminal 12 aa], the protein stability index is 0.623 ± 0.018 under setting [1] and 0.56 ± 0.0057 (genetic background: wild type).

RDLQSALVRQLL [CAD1 C-terminal 12 aa] came in with a protein stability index under setting [1] of 0.718 ± 0.025 and a protein stability index (genetic background: wild type) of 0.68 ± 0.021.

On to RDRLVESCHFTQ [CIN4 C-terminal 12 aa], for which the protein stability index by setting is: under setting [1], 0.722 ± 0.023; (genetic background: wild type) 0.706 ± 0.022.

Take RDVTDWWESREI [CCZ1 C-terminal 12 aa]: the protein stability index is, setting by setting: under setting [1], 0.7553 ± 0.0041; (genetic background: wild type) 0.7652 ± 0.0026.

With REKAEAEAEKKK [RPL13A C-terminal 12 aa], the protein stability index is, setting by setting: under setting [1], 0.704 ± 0.014; (genetic background: wild type) 0.68 ± 0.0053.

Regarding RELGFLFGLNAL [ULS1 C-terminal 12 aa], the protein stability index turned out to be 0.751 ± 0.011 under setting [1] and 0.6855 ± 0.0018 (genetic background: wild type).

Regarding RELWDEEKEIVL [KES1 C-terminal 12 aa], the protein stability index reads like this: under setting [1], 0.704 ± 0.033; (genetic background: wild type) 0.73 ± 0.037.

On to RERAKKLVTWLI [SSY1 C-terminal 12 aa], for which the protein stability index was found to be 0.6701 ± 0.0019 under setting [1] and 0.475 ± 0.026 (genetic background: wild type).

Take RFIRTANKKDYL [IMP4 C-terminal 12 aa]: the protein stability index reads like this: under setting [1], 0.671 ± 0.0071; (genetic background: wild type) 0.7335 ± 0.0025.

On to “RHHEQSHGQEDH [YLR361C-A C-terminal 12 aa]”, for which the protein stability index stood at 0.6985 ± 0.0034 under setting [1] and 0.6868 ± 0.0011 (genetic background: wild type).

RHICVGAKLCKF [MCH4 C-terminal 12 aa]: the protein stability index is 0.8165 ± 0.0035 under setting [1] and 0.818 ± 0.11 (genetic background: wild type).

Regarding RHSCGRQMRVLA [AUA1 C-terminal 12 aa], the protein stability index was 0.6614 ± 0.0011 under setting [1] and 0.248 ± 0.0083 (genetic background: wild type).

For the sequence RIEMDLALTEPL [ORC6 C-terminal 12 aa], the protein stability index is, setting by setting: under setting [1], 0.691 ± 0.016; (genetic background: wild type) 0.685 ± 0.015.

Take RIRQEIIKTKLL [EMP47 C-terminal 12 aa]: the protein stability index was 0.67995 ± 0.00042 under setting [1] and 0.234 ± 0.032 (genetic background: wild type).

With RKESSGGCCIIC [RAS1 C-terminal 12 aa], the protein stability index is, setting by setting: under setting [1], 0.738 ± 0.014; (genetic background: wild type) 0.709 ± 0.011.

For the sequence RKLLERSNKFHI [PET127 C-terminal 12 aa], the protein stability index stood at 0.689 ± 0.009 under setting [1] and 0.746 ± 0.088 (genetic background: wild type).

With RKPPGFFDEGFM [FLC3 C-terminal 12 aa], the protein stability index reads like this: under setting [1], 0.733 ± 0.061; (genetic background: wild type) 0.6965 ± 0.0051.

Consider “RKSENYLNGRQT [YNL067W-B C-terminal 12 aa]”, for which the protein stability index was 0.681 ± 0.017 under setting [1] and 0.721 ± 0.0088 (genetic background: wild type).

RKVPYKIIPYVY [ERG24 C-terminal 12 aa]: the protein stability index turned out to be 0.514 ± 0.019 under setting [1] and 0.5005 ± 0.0021 (genetic background: wild type).

As to RLANIQSFFQRQ [TVP23 C-terminal 12 aa], the protein stability index runs as follows: under setting [1], 0.7155 ± 0.0018; (genetic background: wild type) 0.726 ± 0.064.

For RLIGELGKLTED [YNL115C C-terminal 12 aa], the protein stability index runs as follows: under setting [1], 0.683 ± 0.0088; (genetic background: wild type) 0.701 ± 0.037.

RLLNLQKVIYST [LDB18 C-terminal 12 aa]: the protein stability index worked out at 0.662 ± 0.013 under setting [1] and 0.493 ± 0.064 (genetic background: wild type).

Consider RMIEYLEEYQAW [FRE4 C-terminal 12 aa], for which the protein stability index turned out to be 0.706 ± 0.0073 under setting [1] and 0.72 ± 0.011 (genetic background: wild type).

Take RNIDVSNLPSLA [STM1 C-terminal 12 aa]: the protein stability index by setting is: under setting [1], 0.691 ± 0.011; (genetic background: wild type) 0.6785 ± 0.0067.

For the sequence RQVLDREGLRFG [TRS31 C-terminal 12 aa], the protein stability index by setting is: under setting [1], 0.693 ± 0.027; (genetic background: wild type) 0.705 ± 0.0087.

RRDVQSRSSMAC [HFL1 C-terminal 12 aa]: the protein stability index came to 0.702 ± 0.02 under setting [1] and 0.652 ± 0.0097 (genetic background: wild type).

As for RREKRNKALKER [CGR1 C-terminal 12 aa], the protein stability index came to 0.7064 ± 0.0034 under setting [1] and 0.6945 ± 0.0019 (genetic background: wild type).

RRKLKGRWFLSH [MRX14 C-terminal 12 aa]: the protein stability index came out at 0.702 ± 0.0078 under setting [1] and 0.562 ± 0.0085 (genetic background: wild type).

On to “RRRLTYHRYHPK [YML009C-A C-terminal 12 aa]”, for which the protein stability index by setting is: under setting [1], 0.731 ± 0.014; (genetic background: wild type) 0.722 ± 0.012.

Sequence RSASNRHVDYFL [PPG1 C-terminal 12 aa] displayed a protein stability index under setting [1] of 0.6933 ± 0.0059 and a protein stability index (genetic background: wild type) of 0.698 ± 0.033.

The sequence RSKLFNLSINNP [SPC72 C-terminal 12 aa] gave a protein stability index under setting [1] of 0.6997 ± 0.001 and a protein stability index (genetic background: wild type) of 0.6855 ± 0.0063.

As to RSRKNEGSYLMH [HMT1 C-terminal 12 aa], the protein stability index runs as follows: under setting [1], 0.6967 ± 0.00082; (genetic background: wild type) 0.693 ± 0.0082.
